No end group written: not given here.
Target: human plasma kallikrein (Homo sapiens, UniProt P03952)
Assay: Affinity (Ki,app) for plasma proteases, Table 1
Format: biochemical

Chain of human plasma kallikrein (P03952 391-638 limits assumed): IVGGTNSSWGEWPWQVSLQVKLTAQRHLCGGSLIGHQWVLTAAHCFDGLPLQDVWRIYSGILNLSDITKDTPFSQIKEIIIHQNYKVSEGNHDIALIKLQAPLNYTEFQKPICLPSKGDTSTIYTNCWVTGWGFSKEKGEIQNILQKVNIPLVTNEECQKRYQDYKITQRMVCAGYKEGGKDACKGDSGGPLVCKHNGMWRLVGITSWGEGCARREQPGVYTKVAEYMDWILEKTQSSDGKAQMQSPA
Chain of human plasma kallikrein (P03952 20-390 limits assumed): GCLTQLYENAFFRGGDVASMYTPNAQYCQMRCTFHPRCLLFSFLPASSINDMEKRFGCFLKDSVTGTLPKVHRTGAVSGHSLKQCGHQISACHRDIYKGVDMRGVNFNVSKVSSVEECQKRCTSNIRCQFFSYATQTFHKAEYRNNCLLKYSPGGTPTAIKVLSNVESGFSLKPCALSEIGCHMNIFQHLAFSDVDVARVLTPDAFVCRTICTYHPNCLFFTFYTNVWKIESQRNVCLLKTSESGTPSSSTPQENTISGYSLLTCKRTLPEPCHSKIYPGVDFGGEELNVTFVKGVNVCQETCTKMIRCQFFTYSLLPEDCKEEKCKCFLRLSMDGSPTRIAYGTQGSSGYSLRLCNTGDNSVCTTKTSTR

Substance	specificity among kallikrein and eleven other plasma proteases (from Table 1)	affinity (Ki,app) for kallikrein relative to the affinity of aprotinin (ratio versus aprotinin) [times higher]	concentration in the plasma required to inhibit 99% of the kallikrein at 1 nM (kallikrein 1 nM, 99% inhibition)	Ki (read-out: Ki,app, human plasma kallikrein) [nM]
PEP-1: non-naturally occurring KI polypeptide, 60-amino acid sequence of SEQ ID NO:2, recombinant from Pichia pastoris (EAMHSFCAFKADDGPCRAAHPRWFFNIFTRQCEEFIYGGCEGNQNRFESLEECKKMCTRD; ends and bridges not checked; cysteine pairing not given here)	highly specific for human plasma kallikrein	1000		
aprotinin			at least 3 mu.M	30

Reference: patent US7276480B1, “Prevention and reduction of blood loss” (Dyax Corp., priority 2005, dated 2007)
